# Data reported in patent US20050196404A1.
# Tests used:
# [1] = molecular target: E-Cw*03 SCT (HLA-E single chain trimer with the peptide …) (human); assay: flow cytometry, stably transfected LLC-PK1 cells
# [2] = molecular target: HLA-E SCD (HLA-E single chain dimer) (human); assay: flow cytometry, stably transfected LLC-PK1 cells
# [3] = molecular target: E-Cw*03 SCT (HLA-E single chain trimer with the peptide …) (human); assay: flow cytometry, sorted E-Cw*03 SCT LLC-PK1 stable transfectants
# [4] = molecular target: E-hsp60 SCT (HLA-E SCT harboring the hsp60-derived peptide …) (human); assay: flow cytometry, stably transfected LLC-PK1 cells
Substance,mean fluorescent intensity (MFI) [1],mean fluorescent intensity (MFI) [2],percent of cells stained [3],fold less staining than E-Cw*03 SCT [4]
HLA-E-specific mAb 3D12 (antibody),375 MFI,62 MFI,100%,–
HLA-E-specific mAb MEM-E/6 (antibody),–,–,–,4 to 5 fold
